# The supplement of paper PMC10567573
# B1: RAB11B (parent)
# chain: AVPTDEARAFAEKNNLSFIETSAL
# Variants of: B1
# Assay: protein stability index of a GFP-peptide fusion (GPS, HEK-293T) (PSI 1-6); higher = more stable
# Settings: c terminus: a fixed tail appended
# 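Also: lentivirally expressed fusions sorted by FACS into six bins by GFP to DsRed ratio, PSI derived from sequencing read proportions per bin multiplied by bin number.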
row,Variant,protein stability index
1,AVPTDEARAFAEKNNLSFIENSAL [T21N],2.86
2,AVPTDEARAFAEKNNLSFIEASAL [T21A],3.41
3,AVPTDEARAFAEKNNLSFIEMSAL [T21M],3.35
4,AVPTDEARAFAEKNNLSFIELSAL [T21L],3.08
5,AVPTDEARAFAEKNNLSFIEPSAL [T21P],2.35
6,AVPTDEARAFAEKNNLSFIEESAL [T21E],4.67
7,AVPTDEARAFAEKNNLSFIEFSAL [T21F],2.34
8,AVPTDEARAFAEKNNLSFIEHSAL [T21H],3.06
9,AVPTDEARAFAEKNNLSFIEKSAL [T21K],3.65
10,AVPTDEARAFAEKNNLSFIERSAL [T21R],3.42
11,AVPTDEARAFAEKNNLSFIEDSAL [T21D],4.39
12,AVPTDEARAFAEKNNLSFIEWSAL [T21W],2.76
13,AVPTDEARAFAEKNNLSFIEVSAL [T21V],1.52
14,AVPTDEARAFAEKNNLSFIESSAL [T21S],3.64
15,AVPTDEARAFAEKNNLSFIECSAL [T21C],2.85
16,AVPTDEARAFAEKNNLSFIEISAL [T21I],2.3
17,AVPTDEARAFAEKNNLSFIETSAT [L24T],3.55
18,AVPTDEARAFAEKNNLSFIETSAY [L24Y],3.21
19,AVPTDEARAFAEKNNLSFIETSAD [L24D],5.12
20,AVPTDEARAFAEKNNLSFIETSAP [L24P],4.55
21,AVPTDEARAFAEKNNLSFIETSAS [L24S],4.25
22,AVPTDEARAFAEKNNLSFIETSAN [L24N],4.87
23,AVPTDEARAFAEKNNLSFIETSAV [L24V],3.57
24,AVPTDEARAFAEKNNLSFIETSAM [L24M],3.13

row,Variant,protein stability index
1,AVPTDEARAFAEKNNLSFIETSAW [L24W],2.47
2,AVPTDEARAFAEKNNLSFIETSAQ [L24Q],3.98
3,AVPTDEARAFAEKNNLSFIETSAA [L24A],3.49
4,AVPTDEARAFAEKNNLSFIETSAI [L24I],3.5
5,AVPTDEARAFAEKNNLSFIETSAC [L24C],3.38
6,AVPTDEARAFAEKNNLSFIETSAE [L24E],4.74
7,AVPTDEARAFAEKNNLSFIETSAF [L24F],2.43
8,AVPTDEARAFAEKNNLSFIETSAG [L24G],4.49
9,AVPTDEARAFAEKNNLSFIETSAH [L24H],4.29
10,AVPTDEARAFAEKNNLSFIETSAR [L24R],2.8
11,AVPTDEARAFAEKNNLSFIETSAK [L24K],4.15
12,AVPTDEARAFAEKNNLSLIETSAL [F18L],3.53
13,AVPTDEARAFAEKNNLSIIETSAL [F18I],4.23
14,AVPTDEARAFAEKNNLSNIETSAL [F18N],4.95
15,AVPTDEARAFAEKNNLSKIETSAL [F18K],4.67
16,AVPTDEARAFAEKNNLSQIETSAL [F18Q],4.18
17,AVPTDEARAFAEKNNLSRIETSAL [F18R],4.29
18,AVPTDEARAFAEKNNLSEIETSAL [F18E],5.3
19,AVPTDEARAFAEKNNLSYIETSAL [F18Y],2.97
20,AVPTDEARAFAEKNNLSDIETSAL [F18D],5.17
21,AVPTDEARAFAEKNNLSWIETSAL [F18W],3.67
22,AVPTDEARAFAEKNNLSSIETSAL [F18S],4.89
23,AVPTDEARAFAEKNNLSTIETSAL [F18T],4.97
24,AVPTDEARAFAEKNNLSCIETSAL [F18C],4.48

row,Variant,protein stability index
1,AVPTDEARAFAEKNNLSHIETSAL [F18H],4.51
2,AVPTDEARAFAEKNNLSMIETSAL [F18M],4.1
3,AVPTDEARAFAEKNNLSPIETSAL [F18P],4.88
4,AVPTDEARAFAEKNNLSAIETSAL [F18A],4.78
5,AVPTDEARAFAEKNNLSVIETSAL [F18V],4.71
6,AVPTDEARAFAEKNNLSGIETSAL [F18G],4.47
7,AVPTDEARAFAEKNNLSFIETRAL [S22R],3.13
8,AVPTDEARAFAEKNNLSFIETTAL [S22T],2.98
9,AVPTDEARAFAEKNNLSFIETVAL [S22V],3.19
10,AVPTDEARAFAEKNNLSFIETPAL [S22P],4.02
11,AVPTDEARAFAEKNNLSFIETFAL [S22F],2.52
12,AVPTDEARAFAEKNNLSFIETAAL [S22A],2.71
13,AVPTDEARAFAEKNNLSFIETEAL [S22E],4.06
14,AVPTDEARAFAEKNNLSFIETMAL [S22M],2.83
15,AVPTDEARAFAEKNNLSFIETKAL [S22K],3.69
16,AVPTDEARAFAEKNNLSFIETYAL [S22Y],1.96
17,AVPTDEARAFAEKNNLSFIETGAL [S22G],2.85
18,AVPTDEARAFAEKNNLSFIETQAL [S22Q],3.56
19,AVPTDEARAFAEKNNLSFIETDAL [S22D],4.17
20,AVPTDEARAFAEKNNLSFIETLAL [S22L],3.08
21,AVPTDEARAFAEKNNLSFIETWAL [S22W],2.91
22,AVPTDEARAFAEKNNLSFIETCAL [S22C],3.36
23,AVPTDEARAFAEKNNLSFIETHAL [S22H],2.74
24,AVPTDEARAFAEKNNLSFIETNAL [S22N],3.69

row,Variant,protein stability index
1,AVPTDEARAFAEKNNLSFIETIAL [S22I],2.49
2,AVPTDEARAFAEKNNWSFIETSAL [L16W],3.25
3,AVPTDEARAFAEKNNYSFIETSAL [L16Y],3.18
4,AVPTDEARAFAEKNNLSFIRTSAL [E20R],3.02
5,AVPTDEARAFAEKNNLSFILTSAL [E20L],2.15
6,AVPTDEARAFAEKNNLSFIATSAL [E20A],2.88
7,AVPTDEARAFAEKNNLSFICTSAL [E20C],2.28
8,AVPTDEARAFAEKNNLSFIKTSAL [E20K],3.13
9,AVPTDEARAFAEKNNLSFIGTSAL [E20G],2.76
10,AVPTDEARAFAEKNNLSFIITSAL [E20I],1.85
11,AVPTDEARAFAEKNNLSFIYTSAL [E20Y],2.31
12,AVPTDEARAFAEKNNLSFITTSAL [E20T],2.44
13,AVPTDEARAFAEKNNLSFIDTSAL [E20D],2.92
14,AVPTDEARAFAEKNNLSFINTSAL [E20N],1.74
15,AVPTDEARAFAEKNNLSFIWTSAL [E20W],1.32
16,AVPTDEARAFAEKNNLSFIVTSAL [E20V],1.95
17,AVPTDEARAFAEKNNLSFIQTSAL [E20Q],3.35
18,AVPTDEARAFAEKNNLSFIFTSAL [E20F],1.62
19,AVPTDEARAFAEKNNLSFIMTSAL [E20M],2.05
20,AVPTDEARAFAEKNNLSFIPTSAL [E20P],3.17
21,AVPTDEARAFAEKNNLSFISTSAL [E20S],3.18
22,AVPTDEARAFAEKNNLSFIHTSAL [E20H],2.36
